target: IL23R_huFC (human) (UniProt Q5VWK5); assay: Human IL23R/IL23 ELISA
Target sequence in this assay (Q5VWK5 24-353): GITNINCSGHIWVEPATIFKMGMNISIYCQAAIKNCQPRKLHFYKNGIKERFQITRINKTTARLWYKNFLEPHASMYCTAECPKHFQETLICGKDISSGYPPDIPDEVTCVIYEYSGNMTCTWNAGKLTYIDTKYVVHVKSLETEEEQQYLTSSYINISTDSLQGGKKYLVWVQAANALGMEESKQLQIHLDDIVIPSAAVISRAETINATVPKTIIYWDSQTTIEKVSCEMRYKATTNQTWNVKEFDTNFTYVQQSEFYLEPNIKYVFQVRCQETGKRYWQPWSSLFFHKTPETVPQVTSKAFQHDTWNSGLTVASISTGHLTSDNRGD

| IC50 | Substance |
| --- | --- |
| 10 to 100 nM | Ac-[D-Arg]-Cyclo-[[Abu]-ETWQC]-[Phe(4-2ae)]-[2-Nal]-[THP]-EDN-NH2 (peptide) |
| 1 to 10 nM | Ac-[D-Arg]-Cyclo-[[Abu]-QTWEC]-[Phe(4-2ae)]-[2-Nal]-[THP]-ENN-OH (peptide) |
| 1 to 10 nM | Ac-[D-Arg]-Cyclo-[[Abu]-ETWQC]-[Phe(4-2ae)]-[2-Nal]-[THP]-ENN-NH2 (peptide) |
| 1 to 10 nM | Ac-[D-Arg]-Cyclo-[Abu-ETWEC]-[Phe(4-2ae)]-[2-Nal]-[THP]-ENN-NH2 (peptide) |
| 1 to 10 nM | Ac-[D-Arg]-Cyclo-[[Abu]-QTWOC]-[Phe(4-2ae)]-[2-Nal]-[THP]]-END-NH2 (peptide) |
| 1 to 10 nM | Ac-[D-Arg]-Cyclo-[[Abu]ETWQC]-[Phe(4-2ae)]-[2-Nal]-[THP]-ENN-OH (peptide) |
| 1 to 10 nM | Ac-[D-Arg]-Cyclo-[[Abu]-QTWEC]-[Phe(4-2ae)]-[2-Nal]-[THP]-ENN-NH2 (peptide) |
| 10 to 100 nM | Ac-[D-Arg]-Cyclo-[[Abu]-QTWQC]-[Phe(4-2ae)]-[2-Nal]-[THP]-EDD-NH2 (peptide) |

The remaining lines, values behind:

| Substance | IC50 |
| --- | --- |
| Ac-[D-Arg]-Cyclo-[[Abu]-QTWEC]-[Phe(4-2ae)]-[2-Nal]-[THP]-EDN-NH2 (peptide) | 10 to 100 nM |
| Ac-[D-Arg]-Cyclo-[[Abu]-QTWQC]-[Phe(4-2ae)]-[2-Nal]-[THP]-EDN-NH2 (peptide) | 10 to 100 nM |
| Ac-[D-Arg]-Cyclo-[[Abu]-ETWQC]-[Phe(4-2ae)]-[2-Nal]-[Tetrahydropyran-A]-END-NH2 (peptide) | 1 to 10 nM |
| Ac-[D-Arg]-Cyclo-[[Abu]-QTWEC]-[Phe(4-2ae)]-[2-Nal]-[THP]-END-NH2 (peptide) | 1 to 10 nM |
| Ac-Cyclo-[[Abu]-QTWQC]-[Phe(4-2ae)]-[2-Nal]-[THP]-EDN-OH (peptide) | 10 to 100 nM |
| Ac-[D-Arg]-Cyclo-[[Abu]-QTWQC]-[Phe(4-2ae)]-[2-Nal]-[THP]-END-OH (peptide) | 10 to 100 nM |

target: IL-23R on human cells (IL-23R-expressing DB cells; human NK cells) (human) (UniProt Q5VWK5); assay: cell-based or functional assay
Sequence (Q5VWK5 24-629): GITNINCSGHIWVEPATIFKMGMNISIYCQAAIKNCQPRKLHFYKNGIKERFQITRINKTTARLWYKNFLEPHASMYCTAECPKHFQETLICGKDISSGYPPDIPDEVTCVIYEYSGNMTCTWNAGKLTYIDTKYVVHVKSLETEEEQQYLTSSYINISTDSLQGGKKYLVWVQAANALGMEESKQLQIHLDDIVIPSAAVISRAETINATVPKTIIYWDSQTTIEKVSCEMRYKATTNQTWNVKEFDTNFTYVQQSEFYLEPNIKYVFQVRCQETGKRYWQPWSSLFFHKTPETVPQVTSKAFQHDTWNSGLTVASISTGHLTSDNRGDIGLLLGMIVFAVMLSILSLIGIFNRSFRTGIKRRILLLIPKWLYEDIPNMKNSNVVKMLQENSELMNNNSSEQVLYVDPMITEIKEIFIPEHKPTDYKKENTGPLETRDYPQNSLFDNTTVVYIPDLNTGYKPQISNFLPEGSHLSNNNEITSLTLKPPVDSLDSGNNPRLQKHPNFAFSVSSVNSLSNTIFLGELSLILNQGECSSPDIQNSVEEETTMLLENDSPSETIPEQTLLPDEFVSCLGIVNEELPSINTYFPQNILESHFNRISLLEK

| pStat3 HTRF IC50 | Substance |
| --- | --- |
| < 0.01 µM | Alexa488-PEG4 through [D-Arg]: [D-Arg]-Cyclo-[[Abu]-QTWQC]-[Phe(4-2ae)]-[2-Nal]-[THP]-ENN-NH2 (peptide) |

target: IL23R_huFC (human) (UniProt Q5VWK5); assay: IL23-IL23R competitive binding ELISA
Target sequence in this assay (Q5VWK5 24-353 limits assumed): as the sequence (Q5VWK5 24-353) above

| IC50 | Substance |
| --- | --- |
| 10 to 25 nM | [Ac-[Pen]-QTWQ-[Pen]-[Phe[4-(2-aminoethoxy)]-[2-Nal]-[Aib]-[Lys(Ac)]-NQ-NH2]2PEG25 (peptide) |
| 25 to 100 nM | [Ac-[Pen]-QTWQ-[Pen]-[Phe[4-(2-aminoethoxy)]-[2-Nal]-[Aib]-[Lys(Ac)]-NQ-NH2]2DIG (peptide) |

target: Rat IL-23R_huFC (rat); assay: rat ELISA vs IL-23

| IC50 | Substance |
| --- | --- |
| < 10 nM | Ac-Cyclo-[[Abu]-QTWQC]-[Phe[4-(2-aminoethoxy)]]-[2-Nal]-[Achc]-ENN-NH2 (peptide) |
| < 10 nM | Ac-Cyclo-[[Abu]-QTWQC]-[Phe[4-(2-aminoethoxy)]]-[2-Nal]-[Acvc]-ENN-NH2 (peptide) |
| < 10 nM | Ac-Cyclo-[[Abu]-QTWQC]-[Phe[4-(2-aminoethoxy)]]-[2-Nal]-[Acbc]-ENN-NH2 (peptide) |

Source: patent US20190300590A1
